This data set has as its target Tau441 (tau protein) (UniProt P10636-8 1-441). Put plainly: electrochemical aptasensor (DPV); aptamer on VG@Au electrode, MCH blocked; LOD 0.034 pg/mL, linear 0.1 pg/mL-1 ng/mL (not a Kd); Tau in PBS (10 mM, pH 7.4), 1 h at 37 C on electrode; DPV read in 5 mM Fe(CN)6 3-/4- with 0.1 M KCl. As to conditions: protein: commercial.

This note sets out measurements from paper PMC9331743, “Portable Vertical Graphene@Au-Based Electrochemical Aptasensing Platform for Point-of-Care Testing of Tau Protein in the Blood”.

Sequence of Tau441 (tau protein) (P10636 other isoform, or with tags, fused parts or gaps): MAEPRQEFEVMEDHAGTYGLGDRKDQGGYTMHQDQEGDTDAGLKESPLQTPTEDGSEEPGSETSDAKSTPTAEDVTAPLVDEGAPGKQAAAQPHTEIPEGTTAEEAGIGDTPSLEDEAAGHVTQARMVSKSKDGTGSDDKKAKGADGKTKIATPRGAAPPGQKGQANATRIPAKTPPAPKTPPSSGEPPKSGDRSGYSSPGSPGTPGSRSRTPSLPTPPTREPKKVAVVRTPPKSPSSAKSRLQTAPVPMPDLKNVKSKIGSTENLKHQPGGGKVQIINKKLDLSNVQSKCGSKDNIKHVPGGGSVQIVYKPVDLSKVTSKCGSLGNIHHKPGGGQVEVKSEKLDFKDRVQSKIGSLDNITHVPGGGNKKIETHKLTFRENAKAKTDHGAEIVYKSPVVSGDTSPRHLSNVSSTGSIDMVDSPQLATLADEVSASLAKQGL

B1: tau DNA aptamer (ssDNA)
DNA: CAGCACCGTCAACTGAATGGGTTGGCCGGGCAGCGGGGGGTAGGCTGGTGATGCGATGGAGATGT
modifications: 5' SH-(CH2)6 thiol linker
Regarding B1, the binding result is “binds”.
